Experimental data published in patent US20220251194A1 (Merck Sharp & Dohme, published 2022).
Changes are numbered by the printed parent chain. In names and notes the source's numbering stands.

B1: Humanized 08A IgG4 S61N (lot 98AIO) (antibody)
heavy: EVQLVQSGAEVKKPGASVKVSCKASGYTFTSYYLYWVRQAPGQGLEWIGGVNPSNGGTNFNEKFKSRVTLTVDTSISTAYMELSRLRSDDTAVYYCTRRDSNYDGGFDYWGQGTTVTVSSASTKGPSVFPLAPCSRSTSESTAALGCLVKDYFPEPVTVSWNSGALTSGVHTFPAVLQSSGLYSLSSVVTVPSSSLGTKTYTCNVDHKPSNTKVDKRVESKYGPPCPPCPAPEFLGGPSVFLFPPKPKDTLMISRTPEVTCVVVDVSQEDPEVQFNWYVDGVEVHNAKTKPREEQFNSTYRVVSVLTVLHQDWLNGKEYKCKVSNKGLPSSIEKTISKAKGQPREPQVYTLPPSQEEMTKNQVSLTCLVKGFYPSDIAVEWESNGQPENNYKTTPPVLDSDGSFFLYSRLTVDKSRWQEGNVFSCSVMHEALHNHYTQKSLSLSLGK
light: DIVMTQTPLSLSVTPGQPASISCRASKSVSTSGFSYLHWYLQKPGQPPQLLIFLASNLESGVPDRFSGSGSGTDFTLKISRVEAEDVGVYYCQHSWELPLTFGQGTKLEIKRTVAAPSVFIFPPSDEQLKSGTASVVCLLNNFYPREAKVQWKVDNALQSGNSQESVTEQDSKDSTYSLSSTLTLSKADYEKHKVYACEVTHQGLSSPVTKSFNRGEC
notes: IgG4 S228P / kappa; also called Humanized x [PD-1_H] mAb (08A/HuPD1A-11 S61N S228P corrected) IgG4 / Kappa
B2: Humanized 08A IgG4 S61N N55E (antibody, V domains shown)
VH: EVQLVQSGAEVKKPGASVKVSCKASGYTFTSYYLYWVRQAPGQGLEWIGGVNPSEGGTNFNEKFKSRVTLTVDTSISTAYMELSRLRSDDTAVYYCTRRDSNYDGGFDYWGQGTTVTVSS
VL: DIVMTQTPLSLSVTPGQPASISCRASKSVSTSGFSYLHWYLQKPGQPPQLLIFLASNLESGVPDRFSGSGSGTDFTLKISRVEAEDVGVYYCQHSWELPLTFGQGTKLEIKR
notes: IgG4 S228P / kappa; also called 50AQK; Humanized x [PD-1_H] mAb (08A/HuPD1A-11 N55E S228P) IgG4 / Kappa
B3: Humanized 08A IgG4 S61N (lot 67AGG) (antibody)
heavy: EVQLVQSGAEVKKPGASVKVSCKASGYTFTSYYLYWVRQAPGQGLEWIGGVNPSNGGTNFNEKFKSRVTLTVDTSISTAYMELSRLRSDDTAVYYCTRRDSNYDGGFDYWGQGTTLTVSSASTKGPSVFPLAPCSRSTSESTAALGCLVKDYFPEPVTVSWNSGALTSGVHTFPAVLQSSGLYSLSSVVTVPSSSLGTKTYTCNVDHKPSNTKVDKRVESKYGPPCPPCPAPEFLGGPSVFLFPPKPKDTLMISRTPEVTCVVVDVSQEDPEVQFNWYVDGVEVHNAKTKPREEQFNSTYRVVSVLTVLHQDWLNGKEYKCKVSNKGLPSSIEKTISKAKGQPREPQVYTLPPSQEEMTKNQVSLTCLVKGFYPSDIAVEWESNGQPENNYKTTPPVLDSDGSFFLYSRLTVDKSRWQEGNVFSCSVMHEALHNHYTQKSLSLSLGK
light: B1 light
notes: IgG4 S228P / kappa; Differs from lot 98AIO by an HFR4 mutation; also called Humanized x [PD-1_H] mAb (08A/HuPD1A-11 S61N WT) S228P IgG4 / Kappa, with HFR4 mutation
B4: Humanized 08A IgG4 Fab 098 G56A (antibody, V domains shown)
VH: B2 VH with E55N, G56A, N61S, D100L, N102H
VL: B2 VL
notes: IgG4 S228P / kappa; also called 90AVZ
B5: Humanized 08A IgG4 (antibody, V domains shown)
VH: B2 VH with E55N, N61S
VL: B2 VL
notes: IgG4 S228P / kappa; also called 73AGG; Humanized x [PD-1_H] mAb (08A/HuPD1A-11 S228P) IgG4 / Kappa
B6: Humanized 08A IgG4 G56A (antibody, V domains shown)
VH: B2 VH with E55N, G56A, N61S
VL: B2 VL
notes: IgG4 S228P / kappa; also called 89AVZ; Humanized x [PD-1_H] mAb (08A/HuPD1A-11 G56A) IgG4 S228P / Kappa
B7: Mouse 09A (antibody, mouse IgG1, kappa, V domains shown)
VH: QVQLQQPGAELVKPGTSVKLSCKASGYTFTNYYMYWVKQRPGQGLEWIGGINPSNGGTNFNEKFKNKATLTVDSSSSTTYMQLSSLTSEDSAVYYCTRRDYRFDMGFDYWGQGTTLTVSS
VL: DIVLTQSPASLAVSLGQRAAISCRASKGVSTSGYSYLHWYQQKPGQSPKLLIYLASYLESGVPARFSGSGSGTDFTLNIHPVEEEDAATYYCQHSRDLPLTFGTGTKLELKR
notes: Mouse IgG1 / kappa; also called 03AFN; Mouse x [PD-1_H] mAb (clone 09A) IgG1 / Kappa
B8: Mouse 08A (REF) (antibody, mouse IgG1, kappa, V domains shown)
VH: QVQLQQPGAELVKPGASVKLSCKASGYTFTSYYLYWMKQRPGQGLEWIGGVNPSNGGTNFSEKFKSKATLTVDKSSSTAYMQLSSLTSEDSAVYYCTRRDSNYDGGFDYWGQGTTLTVSS
VL: B7 VL with A9T, A20T, G28S, Y34F, S47P, Y53F, Y57N, R96W, D97E, T104A
notes: Mouse IgG1 / kappa; also called 09AFF; parental mouse 08A antibody
B9: Mouse 08A N59E (antibody, mouse IgG1, kappa, V domains shown)
VH: B8 VH with N59E
VL: B7 VL with A9T, A20T, G28S, Y34F, S47P, Y53F, Y57N, R96W, D97E, T104A
notes: Mouse IgG1 / kappa; also called 39AFL; Mouse x [PD-1_H] mAb (Clone 1.08 N59E) IgG1 / Kappa
B10: Mouse 08A N59A (antibody, mouse IgG1, kappa, V domains shown)
VH: B8 VH with N59A
VL: B7 VL with A9T, A20T, G28S, Y34F, S47P, Y53F, Y57N, R96W, D97E, T104A
notes: Mouse IgG1 / kappa; also called 80AFH; Mouse x [PD-1_H] mAb (Clone 1.08 N59A) IgG1 / Kappa
B11: Mouse 08A N59Q (antibody, mouse IgG1, kappa, V domains shown)
VH: B8 VH with N59Q
VL: B7 VL with A9T, A20T, G28S, Y34F, S47P, Y53F, Y57N, R96W, D97E, T104A
notes: Mouse IgG1 / kappa; also called 38AFL; Mouse x [PD-1_H] mAb (Clone 1.08 N59Q) IgG1 / Kappa
B12: Fab 098 (Fab, V domains shown)
VH: B2 VH with E55N, D100L, N102H
VL: B2 VL with A55G, S56K, N57F, L58R
notes: also called Fab98
B13: Fab 133 (Fab, V domains shown)
VH: B2 VH with S31Q, L34Y, E55N, A92S
VL: B2 VL with A55G, S56F, N57Y, L58R, E59T, Q93S, H94Q, S95M, W96A, E97D
B14: Fab 128 (Fab, V domains shown)
VH: B2 VH with S31Q, L34Y, E55N, A92S
VL: B2 VL with A55G, S56R, N57H, L58R, E59A
B15: Fab 099 (Fab, V domains shown)
VH: B2 VH with E55N, D100L, N102H
VL: B2 VL with A55G, S56T, N57H, L58R, E59A
B16: Fab 102 (Fab, V domains shown)
VH: B2 VH with E55N, D100L, N102H
VL: B2 VL with A55G, S56H, N57F, L58A, E59S
B17: Fab 100 (Fab, V domains shown)
VH: B2 VH with E55N, D100L, N102H
VL: B2 VL with A55S, S56K, N57Y, L58R, E59S, Q93S, H94Q, S95A, W96Y, E97H
B18: Fab 103 (Fab, V domains shown)
VH: B2 VH with E55N, D100L, N102H
VL: B2 VL with A55G, S56R, N57Y, E59Q
B19: Fab 101 (Fab, V domains shown)
VH: B2 VH with E55N, D100L, N102H
VL: B2 VL with A55G, S56K, N57Y, L58G, E59A, Q93A, H94Q, S95A, W96T, E97Q
B20: Fab 138 (Fab, V domains shown)
VH: B2 VH with S31Q, L34T, V51I, N52E, S54N, E55R
VL: B2 VL with Q93A, H94Q, S95T, W96F
B21: Fab 104 (Fab, V domains shown)
VH: B2 VH with E55N, D100L, N102H
VL: B2 VL with A55G, S56T, N57H, L58S, E59V
B22: Fab 139 (Fab, V domains shown)
VH: B2 VH with S31Q, L34Y, E55N, A92S
VL: B2 VL with A55S, S56K, N57F, L58R, E59R

These binders were tested against T1, polyhistidine-tagged human PD-1 (hPD1-His, 98AFK) (human, UniProt Q15116 25-167, limits assumed) (assay: SPR (Biacore T200), mAb captured on anti-Fc chip, hPD1-His as analyte).
T1 construct: also called human PD1-His; Human PD-1-His
T1 sequence (Q15116 25-167 limits assumed): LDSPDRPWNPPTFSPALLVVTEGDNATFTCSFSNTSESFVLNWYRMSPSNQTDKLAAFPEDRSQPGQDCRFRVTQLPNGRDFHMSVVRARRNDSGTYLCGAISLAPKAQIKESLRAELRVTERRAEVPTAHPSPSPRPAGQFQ
Procedure: (§1) A surface plasmon resonance (SPR)-based assay utilizing capture mode was used to determine the binding kinetics and affinities of anti-PD-1 antibodies against polyhistidine-tagged human PD-1 (hPD1-His, 98AFK). Following manufacture instructions, a series S sensor chip CM5 (GE Healthcare, BR100530) was activated using an amine-coupling kit (GE Healthcare, BR100050). Either human capture kit (anti-human Fc, 25 μg/mL, GE Healthcare, BR100839) or mouse capture kit (anti-mouse Fc, 30 μg/mL, GE Healthcare, BR100838) antibody diluted in the supplied pH 5.0, 10 mM sodium acetate buffer was immobilized onto the activated surface for 7 minutes. After immobilization, surfaces were deactivated with 1M ethanolamine/HCl (pH 8.5) for 7 minutes.
(§2) Binding kinetics were measured on a biacore T200 in HBS-EP+ (0.01 M HEPES pH 7.4, 0.15 M NaCl, 3 mM EDTA, 0.05% v/v Surfactant P20) running buffer at 25° C. Antibodies were captured either on mouse or human Fc capture surfaces at 10 μL/min flow rate. Antibodies were captured on flow cells 2, 3 and 4. Flow cell 1 was used as a reference with no antibody captured. A 6-point, 2-fold serial dilutions of the analyte 98AFK (hPD1-His), starting at 20 nM, were prepared in the running buffer (HBS-EP+). Two buffer blanks were included for double referencing. Titration series were injected for 3 minutes at 50 μl/min followed by 600 seconds of dissociation. After each cycle, surfaces were regenerated with a 30 second injection of 3M MgCl₂ at […] on the anti-human Fc chip or 180 seconds of 10 mM Glycine pH 1.7 at 10 μl/min on the anti-mouse Fc chip.
(§3) Sensorgram processing and data analysis were performed with Biacore T200 Evaluation Software Version 2.0.4 (GE Healthcare). […] Processed curves were globally fitted to a 1:1 binding model to determine the association rate constant, kₒₙ (M⁻¹s⁻¹, where “M” equals molar and “s” equals seconds) and the dissociation rate constant, koff (s⁻¹). These rate constants were used to calculate the equilibrium dissociation constant, KD (M)=koff/kₒₙ.

| Kd | Binder |
| --- | --- |
| 0.054 nM | B1 |
| 0.3 nM | B2 |
| 0.045 nM | B3 |
| 0.079 nM | B4 |
| 0.14 nM | B5 |
| 0.1 nM | B6 |
| 0.46 nM | B7 |
| 0.24 nM | B8 |
| 5.9 nM | B9 |
| 0.59 nM | B10 |
| 9.6 nM | B11 |

Each binder was assayed against T2, recombinant human or cyno PD-1 (immobilized onto CM5 chip, Example 1) (human or cyno ( which was …, UniProt Q15116 25-167, limits assumed)) (assay: SPR (Biacore T200), PD-1 immobilized on CM5 chip, Fab as analyte).
T2 construct: also called antigen
T2 sequence (Q15116 25-167 limits assumed): as above
Procedure: Immobilization of recombinant human or cyno PD-1 onto CM5 chip: A CM5 sensor chip was activated in FC2 by 7-min. injection (10 μl/min.) of freshly prepared 1:1 50 mM NHS: 200 mM EDC. PD-1 at a concentration of 0.2 μg/ml in 10 mM sodium acetate buffer pH 5.0 was injected onto the activated chip at 5 μl/min. (HBS-EP running buffer: 10 mM HEPES, 150 mM NaCl, 3.4 mM EDTA, 0.005% surfactant P20, pH 7.4) for 120 seconds. The remaining active coupling sites were blocked with 7 min. injection of 1M ethanolamine at 10 μl/min.
Binding kinetics measurement: Various concentrations of the Fabs were injected with a flow rate of 30 μl/min for 180 seconds(s) during the association phase. The dissociation of bound antibody was monitored by flowing HBS-EP buffer over the chip surface for 600 seconds. At the end of each cycle, the sensor surfaces were regenerated by injecting regeneration buffer (10 mM glycine buffer with pH 1.7) for 180 seconds. After sensograms were corrected for signals from a reference flow, kinetics were calculated with BIACORE T 200 evaluation software ver.1.0 (Biacore, GE, USA).

| Kd | Binder |
| --- | --- |
| 0.031 nM | B12 |
| 0.031 nM | B13 |
| 0.015 nM | B14 |
| 0.034 nM | B15 |
| 0.042 nM | B16 |
| 0.024 nM | B17 |
| 0.028 nM | B18 |
| 0.029 nM | B19 |
| 0.066 nM | B20 |
| 0.052 nM | B21 |
| 0.014 nM | B22 |

Each binder was assayed against T1, polyhistidine-tagged human PD-1 … (assay: SPR solution affinity; reference Humanized 08A IgG4 S61N (98AIO)).
Procedure: (§4) The titration series were incubated for 16-24 hours to reach equilibrium at room temperature. The unbound sites were measured using a BIAcore chip immobilized with antigen in a competition mode where SPR signal detected corresponded to unbound antibody.
(§5) The titration series following >16 hr. incubation were injected over the sensor chip immobilized with hPD1-His (above). Free, unbound antibodies concentrations were measured as proportional to RU after 120 seconds (for 500 pM mAb series) or 400 seconds (for 100 pM mAb series) of injection at 10 μL/min. After each cycle, surfaces were regenerated with a 30 second injection of 1:1 mixture of 3M MgCl₂ and pH 2.0 10 mM glycine at 30 μL/min.

| KD (REF)/KD | Binder |
| --- | --- |
| 1 | B1 |
| 1.7 | B4 |
| 0.6 | B6 |

These binders were tested against T1, polyhistidine-tagged human PD-1 … (assay: SPR (Biacore T200), mAb captured on anti-Fc chip; reference Mouse 08A).
Procedure: as §1, §2, §3

| KD (REF)/KD | Binder |
| --- | --- |
| 4.4 | B1 |
| 0.8 | B2 |
| 5.2 | B3 |
| 3 | B4 |
| 1.7 | B5 |
| 2.4 | B6 |
| 0.5 | B7 |
| 1 | B8 |
| 0.03 | B9 |
| 0.4 | B10 |
| 0.04 | B11 |

Each binder was assayed against T1, polyhistidine-tagged human PD-1 … (assay: SPR solution affinity (Biacore T200, competition mode, equilibrium titration)).
Procedure: as §4, §5

| Kd | Binder |
| --- | --- |
| 0.033 nM | B1 |
| 0.019 nM | B4 |
| 0.056 nM | B6 |
